Ends that are not written are not given here.
Key:
[1] = molecular target: T1, human SETD3 (residues 1-497) (human, UniProt Q86TU7 1-497); assay: ITC; peptide (0.5-1 mM) titrated into SETD3 (0.05 mM) pre-incubated with SAH (1:10); 25 °C; 20 mM Tris-HCl pH 8.0, 150 mM NaCl; one set of binding sites model; details: both partners purified
T1 construct: The methods describe one recombinant human SETD3 with an N-terminal His6-tag without giving limits; Whether that protocol and tag apply to the 1-497 construct used for ITC and crystals is surmised; In ITC and in the crystals SETD3 was pre-incubated with SAH or sinefungin (SFG) at 1:10; also called SETD3_(1-497); histidine methyltransferase SETD3
T1 sequence (looked up): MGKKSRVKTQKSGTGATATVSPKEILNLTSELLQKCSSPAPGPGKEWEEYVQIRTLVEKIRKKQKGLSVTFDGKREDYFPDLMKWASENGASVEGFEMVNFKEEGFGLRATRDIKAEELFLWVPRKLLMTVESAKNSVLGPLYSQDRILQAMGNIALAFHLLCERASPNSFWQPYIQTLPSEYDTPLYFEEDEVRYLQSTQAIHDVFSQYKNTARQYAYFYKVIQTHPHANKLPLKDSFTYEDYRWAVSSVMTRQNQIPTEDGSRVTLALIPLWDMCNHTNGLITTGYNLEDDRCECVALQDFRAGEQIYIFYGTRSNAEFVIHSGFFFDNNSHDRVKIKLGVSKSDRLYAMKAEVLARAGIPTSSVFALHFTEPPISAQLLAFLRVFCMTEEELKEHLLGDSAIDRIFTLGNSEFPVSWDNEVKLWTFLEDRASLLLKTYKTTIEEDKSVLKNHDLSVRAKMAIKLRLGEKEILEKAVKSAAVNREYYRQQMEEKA

[2] = molecular target: T1, human SETD3 (residues 1-497); assay: ITC; peptide (0.5-1 mM) titrated into SETD3 (0.05 mM) pre-incubated with sinefungin (SFG) (1:10); 25 °C; 20 mM Tris-HCl pH 8.0, 150 mM NaCl; one set of binding sites model; details: both partners purified

Kd [1]: 700 nM
Kd [2]: 1000 nM
B1: β-actin peptide, residues 66-81, with His73 (βA-His73) (peptide, UniProt P60709 66-81, looked up)
peptide: TLKYPIEHGIVTNWDD-NH2
notes: β-actin, human, 16-mer, residues 66-81; Made on Rink amide resin, so a C-terminal amide is surmised; also called wild type βA-His73; wild type β-actin peptide; source: synthetic peptide (microwave-assisted SPPS on Rink amide resin, RP-HPLC)

Source: paper doi:10.1101/2021.12.30.474520, “Substrate Specificity for Human Histidine Methyltransferase SETD3” (bioRxiv, 2021)
